Measurements published in patent US10709762B2, “Use of M-CSF for preventing or treating myeloid cytopenia and related complications” (priority 2013, dated 2020).

Tests used:
HSC [1] = assay: Transplantation of M-CSF primed HSC into sub-lethally irradiated recipients, analysis of progeny; type: in vivo, mice
Experimental: (§1) CD45.1 and C57Bl/6 mice were obtained from Charles River. PU.1-GFP^31 M-CSFR^−/−27 and PU.1^fl/fl 32 mice have been described. Age- and sex-matched CD45.1 recipients that were reconstituted as described^3 with CD45.2 foetal liver from wt or M-CSFR^−/− embryos^27 and PU.1^fl/fl or PU.1^fl/fl::MxCre bone marrow, were used to isolate CD150+CD34− KSLF HSC not earlier than 8 weeks after reconstitution. For in vivo injections the 10 μg/mouse M-CSF, 5 mg/kg LPS (055:B5 E. coli) or sorted cells were injected in 100 μl of PBS into the retro-orbital sinus. For HSC transplantation 400 CD150+CD34− KSLF HSC were sorted from CD45.2 mice and mixed with 100.000 Lin^+ Sca^− CD45.1 carrier cells prior to injection into sub-lethally irradiated (4.5 Gy) CD45.1 recipient mice. For competitive transplantations, 1300 CD150+, CD34-KSLF HSC were isolated 16 h after control or 10 μg M-CSF injection from actin-GFP CD45.2 mice^33, mixed with equal numbers of CD45.2 competitor HSC and injected with 300.000 Lin^+ Sca^− RC-lysed CD45.1 carrier cells into sub-lethally irradiated (4.5 Gy) CD45.1 recipients. Contribution to platelets, CD19+ B-cells and CD11b+ myeloid cells was analysed after 4 and 6 weeks in the blood from mice with at least 5% GFP+ donor cells. For PU.1 deletion PU.1^fl/fl or PU.1^fl/fl::MxCre reconstituted mice were intra-peritoneally injected with 5 μg/g Polyinosinic:polycytidylic acid 7 and 9 days prior to control (PBS) or 10 μg M-CSF injection. All mouse experiments were performed under specific pathogen-free conditions in accordance with institutional guidelines.
For FACS sorting and analysis we used described staining protocols^3 and published stem and progenitor cell definitions^34, FACSCANTO™ BD™ LSRII and FACSARIA™ III equipment and DIVA™ software (BECTON-DICKINSON), analysing only populations with at least 200 events. For HSC analysis we used antibodies anti-CD34-FITC (clone RAM34, BD BIOSCIENCES), anti-CD135-PE (clone A2F10.1, BD BIOSCIENCES), anti-CD150-Pe-Cy7 (clone TC15-12F12.2, BIOLEGEND), anti-CD117-APC H7 (clone 2B8, BD BIOSCIENCES), anti-Sca-1-Pe-Cy5 (clone D7, BIOLEGEND), anti-CD48-APC (clone HM48-1, BIOLEGEND). Diverging from this or in addition we used antibodies anti-CD34 Alexa 700 (clone RAM34, BD BIOSCIENCES), anti-CD16/32 PE (clone 2.4G2, BD BIOSCIENCES), anti-CD11b PE-CF594 (clone M1/70, BD BIOSCIENCES), anti-CD19PE-Cy7 (clone 1D3, BD biosciences), anti CD45.2 APC (clone 104, BD BIOSCIENCES) and anti CD45.1 Pacific Blue (clone A20, BD BIOSCIENCES) for progenitor and blood cell analysis. LIVE/DEAD Fixable Violet Dead cell dye (Invitrogen) was used as viability marker.

[2] = system: PU.1 promoter activation in single PU.1 negative HSC; assay: Time-lapse video imaging of GFP-negative sorted HSC from PU.1-GFP mice; type: cell-based
Experimental: Wherever possible our video microscopy protocols followed proposed guidelines^24. In detail, FACS sorted CD150+ CD34− KSLF HCS from wt C57/Bl6 or GFP-negative CD150+ CD34− KSLF HSC from PU.1-GFP reporter mouse^31 bone marrow were suspended in SCM supplemented with 100 U/ml penicillin and […] streptomycin, 20 ng/ml rSCF, 50 ng/ml rTPO+/−100 ng/ml rM-CSF and plated in Ibidi μ-slidesVI(0.4) (Biovalley SA, France). Time-lapse microscopy was performed using a Cell Observer system (Carl Zeiss Microscopy GmbH, Germany) at 37° C. and 5% CO2. Images were acquired every 10 minutes using 10× (A-plan 10×/0.45 Ph1) or 40× (Plan-Apochromat 40×/0.95 Korr M27) objectives in brightfield and fluorescence (GFP filters: EX BP 470/40; at 350 ms) with a COOLSNAP™ HQ2 monochrome camera (Photometrics) with a 2×2 binning and a metal halide 120W source for fluorescence illumination. For image analysis a matrix of 4×4 images was acquired for each time point. Images were stitched with AxioVision software (Carl Zeiss Microscopy GmbH, Germany) and processed with Fiji software^36 using a slight rolling ball subtraction of background and 1 pixel Gaussian blur. For background subtraction of brightfield images, the median of z-projection was subtracted from the time-lapse stack. Single cell tracking was performed with basic commands of ImageJ^37 and Fiji^36 software and with specific tracking plugin MTrackJ^38 in manual mode. Each cell was tracked manually frame-by-frame in the bright field channel and cross-controlled by two microscope specialists. Cells with non-standard morphology or size were rejected. The fluorescence signal was measured as the difference of maximum minus minimum intensity within a defined region of interest (ROI) around each cell. Cell properties and behaviour (cell division, cell death, position, fluorescence increase) were manually documented to build cumulated curves. R^39 and Excel (Microsoft Corporation) software was used to manage data and build graphics.

[3] = system: PU.1 expression in sorted HSC; assay: Quantitative RT-PCR of PU.1 expression in sorted HSC in culture; type: cell-based, mice; details: 16 h in culture with cytokine, 100 ng/ml
Experimental: (§2) CD150+CD34− KSLF HSC or CD150+CD34− CD48− KSLF HSC (single cells) were sorted into S-clone SF-03 medium (Sanko Jyunyaku) with 10% FBS supplemented with 100 U/ml penicillin and […] streptomycin (both Invitrogen) and cultivated in uncoated U-Shape 96 well plates (Greiner) in 100 μl SCM, 20 ng/ml rSCF, 50 ng/ml rTPO+/−100 ng/ml rM-CSF or 100 ng/ml rGM-CSF or 100 ng/ml rG-CSF. All cytokines were murine and from PeproTech. Cell viability was analyzed by AnnexinV and Propidium iodide FACS staining^35.
Total RNA was isolated and reverse transcribed with μMACS™ ONE-STEP T7 template kit (Miltenyi Biotec) and analysed by quantitative real-time PCR using TAQMAN® Universal PCR Master Mix and a 7500 Fast Real Time PCR System sequence detection system (both Applied Biosystem), following the manufacturers' instructions.

CD150hi HSC = assay: In vitro culture of HSC, proliferation and survival; type: cell-based, mice; details: culture in the presence of M-CSF
Experimental: as §2

HSC [4] = assay: Competitive transplantation of M-CSF primed HSC, blood cell contribution; type: in vivo
Experimental: as §1

B1: M-CSF: recombinant murine macrophage colony stimulating factor from PeproTech, used in Example 1 (protein, UniProt P07141 33-552, looked up)
Macrophage colony-stimulating …: KEVSEHCSHMIGNGHLKVLQQLIDSQMETSCQIAFEFVDQEQLDDPVCYLKKAFFLVQDIIDETMRFKDNTPNANATERLQELSNNLNSCFTKDYEEQNKACVRTFHETPLQLLEKIKNFFNETKNLLEKDWNIFTKNCNNSFAKCSSRDVVTKPDCNCLYPKATPSSDPASASPHQPPAPSMAPLAGLAWDDSQRTEGSSLLPSELPLRIEDPGSAKQRPPRSTCQTLESTEQPNHGDRLTEDSQPHPSAGGPVPGVEDILESSLGTNWVLEEASGEASEGFLTQEAKFSPSTPVGGSIQAETDRPRALSASPFPKSTEDQKPVDITDRPLTEVNPMRPIGQTQNNTPEKTDGTSTLREDHQEPGSPHIATPNPQRVSNSATPVAQLLLPKSHSWGIVLPLGELEGKRSTRDRRSPAELEGGSASEGAARPVARFNSIPLTDTGHVEQHEGSSDPQIPESVFHLLVPGIILVLLTVGGLLFYKWKWRSHRDPQTLDSSVGRPEDSSLTQDEDRQVELPV
B1 was tested, and the “myeloid differentiation preference of M-CSF primed HSC after deletion of PU.1” value (HSC [1]; HSC with deleted PU.1 alleles, spleen 2 weeks) was “abolished”, the “ratio of GMP to MEP progenitors in the spleen” value (HSC [1]; in vivo M-CSF primed CD45.2 HSC, after 2 weeks) was “increased ratio” and the “myeloid to lymphoid cell ratio in peripheral blood” value (HSC [1]; in vivo M-CSF primed HSC, after 4 weeks) was “increased myeloid to lymphoid cell ratio”. For the same molecule, the “ratio of GMP to MEP developing from PU.1+ HSC versus PU.1- HSC” value (HSC [1]; in vivo priming with M-CSF, spleen 2 weeks after transplantation) was “higher ratio”, the “proliferation or survival advantage of cultured HSC (video-microscopy)” value ([2]; culture in M-CSF) was “no proliferation or survival advantage” and the “PU.1+ cells developed versus control conditions” value ([2]; end of the 24 h observation period (18 to 42 hours of culture)) was “over two-fold more PU.1+ cells”. The “commitment events of PU.1 activation occurred earlier” value ([2]; in the presence of M-CSF versus control) was 8 h, the “rate of PU.1 activation events” value ([2]; over the whole observation period) was “higher rate” and the “PU.1 expression in FACS purified HSC” value [3] was “increased PU.1 expression”. For the same molecule, the “proliferation or survival advantage of cultured CD150hi HSC” value (CD150hi HSC) was “no proliferation or survival advantage”, the long-term multi-lineage contribution (HSC [4]) was “did not compromise” and the “myeloid contribution compared to platelet and lymphoid contribution in the blood” value (HSC [4]; after 6 weeks) was “re-equilibrated”. The “myeloid contribution compared to platelet and lymphoid contribution in the blood” value (HSC [4]; at 4 weeks) was “myeloid advantage”.
